Test results: patent publication US20120309692A1

Target: recombinant human glandular kallikrein 2 (hK2) (human) (UniProt P20151)
Test: cell-based or functional assay

SLPI, sequence (P03973 26-132 limits assumed): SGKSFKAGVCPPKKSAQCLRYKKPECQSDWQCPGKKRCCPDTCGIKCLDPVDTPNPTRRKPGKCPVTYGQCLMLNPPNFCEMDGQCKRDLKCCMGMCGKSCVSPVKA

Substance: PPACK (peptide)
- hK2 Activity (%) of inhibitor-free control, inhibitor at 5 µM: 0%

Substance: SLPI (from UniProt P03973 26-132)
- hK2 Activity (%) of inhibitor-free control, inhibitor at 0.08 µM: 92%
- hK2 Activity (%) of inhibitor-free control, inhibitor at 4 µM: 35%

Substance: antipain (peptide)
- hK2 Activity (%) of inhibitor-free control, inhibitor at 100 µM: 33%
- hK2 Activity (%) of inhibitor-free control, inhibitor at 500 µM: 10%

Substance: leupeptin (peptide)
- hK2 Activity (%) of inhibitor-free control, inhibitor at 100 µM: 12%
